The values that follow come from PMC9729196, “An in silico method to assess antibody fragment polyreactivity” (Nature Communications, 2022).

Assay [1] addresses T1, wild-type human FLAG-AT1R (angiotensin II type 1 receptor) (Homo sapiens, UniProt P30556).
T1 construct: angiotensin II type 1 receptor (AT1R), human, wild type; Cells were gated with the M1 anti-FLAG antibody; also called angiotensin II type I receptor; source: Expi293F TetR cells, stably transfected (pCDNA Zeo-TetO), induced with doxycycline; on cells, or in cell membranes prepared from them
The assay is described as follows: radioligand binding; competition of nanobody with 2 nM [3H]-olmesartan on membranes of FLAG-AT1R cells; 50 mM Tris pH 7.4, 12.5 mM MgCl2, 150 mM NaCl, 0.2% BSA, 90 min, room temperature; Ki from a one-site competition model. The note with it: one partner purified.

Assay [2] addresses T2, wild-type human FLAG-AT1R (angiotensin II type 1 receptor) (human, UniProt P30556 1-359).
T2 chain: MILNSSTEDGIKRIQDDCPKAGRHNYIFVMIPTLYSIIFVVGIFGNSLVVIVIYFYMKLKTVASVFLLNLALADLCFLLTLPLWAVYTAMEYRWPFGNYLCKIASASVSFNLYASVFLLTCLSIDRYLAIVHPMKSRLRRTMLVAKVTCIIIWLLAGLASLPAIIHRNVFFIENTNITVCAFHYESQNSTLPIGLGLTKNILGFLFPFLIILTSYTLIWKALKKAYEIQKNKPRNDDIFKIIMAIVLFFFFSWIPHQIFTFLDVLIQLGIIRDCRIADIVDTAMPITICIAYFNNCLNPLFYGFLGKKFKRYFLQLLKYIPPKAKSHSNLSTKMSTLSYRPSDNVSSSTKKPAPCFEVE
The assay is described as follows: FACS. (In general: Flow cytometry measures light scatter and fluorescence of single cells or particles in a stream.)

In assay [3] the target is T2, wild-type human FLAG-AT1R (angiotensin …).
The target of assay [4] is T1, wild-type human FLAG-AT1R (angiotensin …). Description: flow cytometry on cells; Expi293F cells expressing FLAG-AT1R stained with 20 nM nanobody (C-terminal V5), 1 h, 4 °C, 20 mM Hepes pH 7.4, 150 mM NaCl, 0.1% BSA; detected with Alexa 647 anti-V5; gated for M1 anti-FLAG-positive singlets. The note with it: one partner purified.
For assay [5], the target named is T2, wild-type human FLAG-AT1R (angiotensin …). The assay is described as follows: [3H]-olmesartan competition, membranes.
The next assay has as its target insulin (Homo sapiens (assumed; ), UniProt P01308).

Residue numbers refer to the chain shown, from its start. In names and notes the source's numbering stands. Where two headings read alike, the source gives them in different places.

Sequence of insulin (F8WCM5 25-54, chain 1 of 2): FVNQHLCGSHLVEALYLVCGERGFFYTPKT
Sequence of insulin (P01308 90-110, chain 2 of 2): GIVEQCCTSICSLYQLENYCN

B1: AT118i4h32 G26D^27 T57I^65 (VHH)
VHH: EVQLVESGGGLVQPGGSLRLSCAASDYIYRRYRMGWYRQAPGKGREFVAAISGGSSINYADSVKGRFTISRDNSKNTVYLQMNSLRAEDTAVYYCAAYRIVSDPRVYWGQGTQVTVSS
notes: as the chain of m1 with the two stated substitutions; its own crystal structure is one of PDB 7T83 and 7T84 (crystallised construct: N-terminal Met-Ala, C-terminal His tag); the superscripts are IMGT numbers; also called G26D^27 T57I^65 variant; source: E. coli BL21(DE3), pET26b, purified (Protein A, Ni-NTA); not shown: V5, C-terminal, kept; His6, C-terminal, kept
As a reminder, the Kd is the equilibrium constant for the complex coming apart. One may read the Ki as the equilibrium dissociation constant of an inhibitor or competing ligand from its target. Turning to B1, the binding result in assay [1] was “binds”. In assay [2], this molecule showed a Kd of 54 nM. The molecule further had a Ki in assay [3] of 79.4 nM.

B2: AT118i4h32 T57I^65 (VHH)
VHH: B1 VHH with D26G
B2: in assay [3], the affinity, expressed as Ki, was 64.6 nM.

B3: AT118i4h32 T57D^65 (VHH)
VHH: B1 VHH with D26G, I57D
notes: as the chain of m1 with the stated substitution; the superscript is the IMGT number; also called T57D^65 substitution; source: E. coli BL21(DE3), pET26b, purified (Protein A, Ni-NTA); not shown: V5, C-terminal, kept; His6, C-terminal, kept
Take B3: the “fold decrease of binding against the wild type” value in assay [4] was found to be 2 fold.

B4: AT118i4h32 (VHH)
VHH: B1 VHH with D26G, I57T
notes: coordinates of the AT118i4h32 structures are deposited as PDB 7T83 and 7T84 (the crystallised construct has an N-terminal Met-Ala and a C-terminal His tag); humanised form of AT118 (eleven substitutions towards human VH3-23); Nanobody antagonist of AT1R from a synthetic library, humanised; also called WT AT118i4h32; wild-type nanobody; source: E. coli BL21(DE3), pET26b, purified (Protein A, …)
For B4, the inhibition constant Ki in assay [5] is 72.4 nM. The affinity in assay [2], expressed as Kd, was 58.3 nM. Further, the binding result in assay [4] is on record as “binds”.

B5: AT118i4h32 G26D^27 (VHH)
VHH: B1 VHH with I57T
Turning to B5, in assay [3], the Ki came to 70.8 nM.

B6: F10' (VHH)
VHH: QVQLVESGGGLVQAGGSLRLSCAASGSTFWWYAMGWYRQAPGKERELVATISRGGSTNYADSVKGRFTISRDNAKNTVYLQMNSLKPEDTAVYYCARKTRDIRLDYWGQGTQVTVSS
For B6, the binding result with insulin was “binds”.
